Test [1] deals with human LILRB4 (human) (UniProt Q8NHJ6). Briefly: cell-based or functional assay.
Test [2] addresses cynomolgus (Macaca fascicularis) LILRB4 (cynomolgus (Macaca fascicularis)). Description: FACS, CHO-S-cynoLILRB4 cells.
The target of test [3] is human LILRB4 (human) (UniProt Q8NHJ6). Description: FACS, 293F-hLILRB4 cells.
Test [4] addresses human LILRA6 protein (human) (UniProt Q6PI73). Briefly: ELISA, LILRA6 protein.

human LILRB4 (human), sequence (Q8NHJ6 22-448): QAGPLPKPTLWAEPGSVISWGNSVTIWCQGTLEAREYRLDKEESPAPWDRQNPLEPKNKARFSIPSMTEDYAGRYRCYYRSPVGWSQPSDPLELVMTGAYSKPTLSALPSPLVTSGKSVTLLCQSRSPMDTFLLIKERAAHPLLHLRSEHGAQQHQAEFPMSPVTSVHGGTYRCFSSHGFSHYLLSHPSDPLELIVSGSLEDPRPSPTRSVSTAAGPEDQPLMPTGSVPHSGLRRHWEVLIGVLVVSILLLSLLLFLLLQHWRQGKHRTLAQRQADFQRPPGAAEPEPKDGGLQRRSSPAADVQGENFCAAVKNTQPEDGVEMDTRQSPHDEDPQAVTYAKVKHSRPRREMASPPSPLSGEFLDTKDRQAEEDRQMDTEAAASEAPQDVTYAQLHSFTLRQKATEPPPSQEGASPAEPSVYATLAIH
human LILRA6 protein (human), sequence (Q6PI73 24-447 limits assumed): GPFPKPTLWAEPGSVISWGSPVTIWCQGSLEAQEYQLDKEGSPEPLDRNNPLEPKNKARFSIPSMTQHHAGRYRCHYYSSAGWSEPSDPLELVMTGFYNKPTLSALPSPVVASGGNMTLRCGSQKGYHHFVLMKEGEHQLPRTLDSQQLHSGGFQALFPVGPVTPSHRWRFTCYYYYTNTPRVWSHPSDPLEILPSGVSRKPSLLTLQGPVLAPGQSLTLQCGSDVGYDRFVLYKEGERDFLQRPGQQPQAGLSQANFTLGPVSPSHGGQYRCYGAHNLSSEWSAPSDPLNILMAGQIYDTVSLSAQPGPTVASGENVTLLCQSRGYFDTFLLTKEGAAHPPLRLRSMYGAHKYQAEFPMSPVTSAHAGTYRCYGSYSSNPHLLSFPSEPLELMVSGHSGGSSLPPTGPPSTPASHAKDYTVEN

B1: NGM831 (antibody, V domains shown)
VH: EVQLQQSGPEVKPGASVKISCKASGYTFTDYNMDWVKQSHGKSEWIGYIYPSNGGTGYNQKFKSKATLTVDKSSNTAYMELHSLTSEDSAVYYCARVPYYDYLYYYAMDYWGQGTSVTVSS
VL: QIVLSQSPAILSASPGEKVTMACRASSSVSFMHWYQQKPGSSPQPWIYATSNLASGVPARFSGSGSGTSYSLTISRVEAEDAATYYCQQWSTNPYMYTFGGGTKLEIK
For B1, in the test with human LILRB4 (human) [1], the ADCP (%) at 133.3 nM, macrophages and MV-4-11 cells amounted to 6.37%; the EC50 (nM), ADCC on THP-1 cells stood at 488 nM; the FcγR stimulation (TNF-α, pg/mL) turned out to be 261 pg/mL; the Fold change (Compared to isotype) turned out to be 8.26 fold. Further, the Max cell cytotoxicity (%), ADCC on THP-1 cells in the test with human LILRB4 (human) [1] is -6.89%. Moreover, the Max MFI in test [2] amounted to 822 MFI. In the test with human LILRB4 (human) [3], this molecule yielded a concentration giving a half-maximal response (EC50) of 4.39 nM and a Max MFI of 30400 MFI. Besides, in test [4], the ELISA(OD450) is 1.32 OD450.

B2: ch48-E11-H7-B5 (antibody, V domains shown)
VH: EVQLVESGGGLVKPGGSLKLSCAASGFTFSSYAMSWVRQTPEKRLEWVASITIGDDTYYPDSVKGRFTISRDHAKNILYLQVSSLRSEDTAMYSCARGVNSYGSSYRYFDVWGAGTTVTVSS
VL: DIVMTQSHKFMSTSVGDRVSITCKASQDVSTAVAWYQQKPGQSPKLLIYWASTRHTGVPDRFTGSGSGTDYTLTISSVQAEDLALYYCQQHYSIPFTFGAGTKLEK
On to B2, for which the ELISA(OD450) in test [4] amounted to 0.302 OD450.

Source of the values: US20250361295A1.
